Key:
[1] = biological target: purified human fibrinogen (UniProt P02671)
prothrombin = prothrombin (UniProt P00734)
Abz-YQTFFNPRTFGSQ-EDDnp = test system: T1, Abz-YQTFFNPRTFGSQ-EDDnp
T1 sequence: YQTFFNPRTFGSQ

Substance	Factor X activation, hydrolysis of S-2765 (Factor X)	Factor X activation, hydrolysis of S-2765 (p-nitroaniline formed) (Factor X)	Coagulation Time (S) of fibrinogen, without Factor II [1]	Coagulation Time (S) of fibrinogen, with Ca2+ (prothrombin) [s]	Coagulation Time (S) of fibrinogen, without Ca2+ (prothrombin) [s]	Kcat (Abz-YQTFFNPRTFGSQ-EDDnp)	Kcat/Kmapp (Abz-YQTFFNPRTFGSQ-EDDnp)	Kmapp (Abz-YQTFFNPRTFGSQ-EDDnp)
Lonomia obliqua Prothrombin Activator Protease (Lopap)	Lopap did not present capacity of activating factor X	When Factor X (30 nM) was added to the experiment, the substrate hydrolysis obtained was of 2,6 µM	Lopap + / F II - / FG +: >1200	60	240	Kcat 5,32 sec^-1	Kcat/K mapp 1,2×106 M^-1 sec -1	Kmapp 4,5 µM
Factor Xa				120				

Reference: US20050130287A1, “Purifying process of soluble proteins of the l.obliqua bristles through prothrombin activation: process for a partial determination of the amino acids sequence of the prothrombin activator; process for determining the prothrombin activation of fraction II, n-terminal and internal fragments sequences” (priority 2002, published 2005)
